Measured values from patent US20200140517A1 (CASE WESTERN RESERVE UNIVERSITY, published 2020).
Values joined by “and” are separate entries in the source; they are usually repeats but may differ in a detail not shown here. Equal values may be shown once. Positions of bridges follow the written chain, without caps; N, C: chain ends. No end group written: not given here.

Assays:
[1] = substrate: B isoform of the insulin receptor (UniProt P06213); test: receptor binding affinity, method not described; reference: wild type human insulin
[2] = biological target: T1, A isoform of the insulin receptor (UniProt P06213-2 28-1370, limits assumed); test: receptor binding affinity, method not described; reference: human insulin; data not shown
T1 construct: also called IR-A

B1: 4SS 81-04 (SCI-2; 57-mer single-chain insulin analogue with fourth disulfide bridge, cystine B4-A10) (ligand)
chain: FVNCHLCGSHLVEALYLVCGERGFFYTDPTEEGPRRGIVEQCCHSCCSLEQLENYCN
modifications: disulfide 4-46; also: three canonical disulfides, pairing not given here
notes: Single polypeptide chain (B domain, 6-residue C domain EEGPRR, A domain), expressed in Pichia pastoris; Cys at B4 and A10 form a fourth disulfide bridge beside the three canonical ones; also called 57mer SCI-2
fold reduction of affinity relative to wild type human insulin [1]: 5 fold and 10 fold | affinity relative to human insulin [2]: 120 percent
